The values that follow come from doi:10.1101/2022.06.09.495492 (2022).

The target in experiment [1] is His-△237 (T. vaginalis). The experiment is described as follows: ELISA; F-actin. For orientation: An ELISA detects its analyte on a solid surface through an enzyme-linked reagent.
Experiment [2] has as its target His-△237 (T. vaginalis). The experiment is described as follows: ELISA; G-actin.

One may read the Kd as the free concentration of one partner at which half of the binding sites on the other are occupied at equilibrium, for simple one-to-one binding. Lower therefore signals tighter binding.

B1: GST-Tvactin (natural protein)
chain: not shown
In the case of B1, the results for the dissociation constant Kd in the experiment with His-△237 [1] and with His-△237 [2] were 10.3 µM and 9.01 µM, respectively.
